Test results as given in US20250152729A1 (CANCER RESEARCH TECHNOLOGY, published 2025).
Substitutions are numbered along the chain they refer to. In names and notes the source's numbering stands. Read-outs that look alike come from different tables or passages of the source.

T1: human SEMA4A expressed on cells (UniProt ID Q9H3S1, isoform 1) (human, UniProt Q9H3S1 33-761)
T1 sequence: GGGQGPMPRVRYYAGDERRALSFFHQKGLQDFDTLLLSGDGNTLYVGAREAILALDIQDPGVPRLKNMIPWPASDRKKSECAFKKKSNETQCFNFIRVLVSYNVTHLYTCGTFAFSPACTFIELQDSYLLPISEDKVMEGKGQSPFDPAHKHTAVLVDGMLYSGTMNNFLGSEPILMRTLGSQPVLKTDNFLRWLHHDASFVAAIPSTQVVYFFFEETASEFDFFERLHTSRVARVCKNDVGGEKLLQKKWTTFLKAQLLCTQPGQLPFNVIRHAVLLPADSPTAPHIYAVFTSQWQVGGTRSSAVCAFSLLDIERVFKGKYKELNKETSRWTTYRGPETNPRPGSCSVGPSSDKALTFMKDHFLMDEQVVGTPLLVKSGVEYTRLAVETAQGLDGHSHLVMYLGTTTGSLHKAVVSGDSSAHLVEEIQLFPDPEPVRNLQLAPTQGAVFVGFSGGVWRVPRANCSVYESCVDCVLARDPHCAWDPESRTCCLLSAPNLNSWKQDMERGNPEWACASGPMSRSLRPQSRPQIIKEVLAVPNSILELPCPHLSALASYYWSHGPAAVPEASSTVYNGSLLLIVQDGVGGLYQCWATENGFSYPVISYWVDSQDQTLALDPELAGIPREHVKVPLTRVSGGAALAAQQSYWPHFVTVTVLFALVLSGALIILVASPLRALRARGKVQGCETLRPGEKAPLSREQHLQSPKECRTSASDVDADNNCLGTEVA

T2: human SEMA4B expressed on expi293 cells (human, UniProt Q9NPR2 44-837)
T2 construct: whole, on cells
T2 sequence (looked up): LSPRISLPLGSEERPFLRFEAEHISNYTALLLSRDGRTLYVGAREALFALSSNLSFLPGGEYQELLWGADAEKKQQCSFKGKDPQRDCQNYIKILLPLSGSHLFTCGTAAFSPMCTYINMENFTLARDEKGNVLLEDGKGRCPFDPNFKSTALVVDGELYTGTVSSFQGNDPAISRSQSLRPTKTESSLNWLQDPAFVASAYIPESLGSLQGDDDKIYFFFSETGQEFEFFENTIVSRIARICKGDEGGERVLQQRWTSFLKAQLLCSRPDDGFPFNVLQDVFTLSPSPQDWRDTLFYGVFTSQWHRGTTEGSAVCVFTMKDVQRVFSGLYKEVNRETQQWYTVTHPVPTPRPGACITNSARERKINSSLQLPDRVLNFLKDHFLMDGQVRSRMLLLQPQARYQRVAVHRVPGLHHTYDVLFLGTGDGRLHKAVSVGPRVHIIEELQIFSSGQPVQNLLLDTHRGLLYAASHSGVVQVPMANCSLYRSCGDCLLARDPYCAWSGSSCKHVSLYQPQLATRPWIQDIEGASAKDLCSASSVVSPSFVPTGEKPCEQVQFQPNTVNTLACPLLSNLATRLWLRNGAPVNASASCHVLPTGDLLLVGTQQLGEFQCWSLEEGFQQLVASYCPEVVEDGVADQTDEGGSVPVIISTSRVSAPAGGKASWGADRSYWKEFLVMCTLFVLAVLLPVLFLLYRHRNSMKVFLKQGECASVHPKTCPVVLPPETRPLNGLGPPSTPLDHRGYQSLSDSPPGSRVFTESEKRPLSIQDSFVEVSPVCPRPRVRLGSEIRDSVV

B1: mouse 5E3 as human Alya IgG1 conjugated to McMMAF (antibody, V domains shown)
VH: QVQLQQPGAELVMPGASVKMSCKASGYTFTDYWMHWVKQRPGQGLEWIGAIDTSDSYTSYNQKFKGKATLTVDESSSTAYMQLSSLTSEDSAVYYCARDYGNFYYYAMDYWGQGTSVTVSS
VL: QAVVTQESALTTSPGETVTLTCRSSTGAVTTSNYANWVQEKPDHLFTGLIGGTNNRAPGVPARFSGSLIGDKAALTITGAQTEDEAIYFCALWYSNHWVFGGGTKLTVL
modifications: McMMAF on the engineered cysteines 239iCys and S442C (EU numbering) of the heavy constant region
notes: Antibody-drug conjugate; human IgG1 Alya constant, drug-to-antibody ratio of four; also called Mouse 5E3-McMMAF
B2: C0120906 human Alya IgG1 conjugated to McMMAF (antibody, V domains shown)
VH: EVQLVQSGPEVKKPGASVKISCKASGYKLNDPGVHGVSWVRQAPGQGLEWMGWISTLNGDTRYAQKFQGRVTMATDSSTSTIYMDLRSLKSDDTALYYCARDDYTAIFDFWGRGTLVTVSS
VL: QSVLTQPPSVSVAPGQTASITCGGSNIGSQSVHWYQQKPGQAPVLVVYDDSDRPSGIPERFSGSKSGNTASLILSRVEAGDEADYYCQVWDSSTDHHVFGTGTKVTVL
modifications: McMMAF on the engineered cysteines 239iCys and S442C (EU numbering) of the heavy constant region
notes: Antibody-drug conjugate; human IgG1 Alya constant; also called C0120906-McMMAF
B3: C0120917 human Alya IgG1 conjugated to McMMAF (antibody, V domains shown)
VH: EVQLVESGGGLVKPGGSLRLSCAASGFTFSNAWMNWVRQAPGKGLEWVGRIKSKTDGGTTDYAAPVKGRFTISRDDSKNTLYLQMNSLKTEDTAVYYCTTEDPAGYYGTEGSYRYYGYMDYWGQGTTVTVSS
VL: NFMLTQPHSVSESPGKTVTISCTASGDTLDNKYVNWYQVRPGSAPATLIFHYEERDSGVPDRFSGSFDASSNSASLTISGLQTADEADYFCQSYDSKRDNLVVFGGGTKVTVL
modifications: McMMAF on the engineered cysteines 239iCys and S442C (EU numbering) of the heavy constant region
notes: Antibody-drug conjugate; human IgG1 Alya constant; also called C0120917-McMMAF
B4: 5Hg1-5Lg1 human Alya IgG1 conjugated to McMMAF (antibody, V domains shown)
VH: QVQLVQSGAEVKKPGASVKVSCKASGYTFTDYWMHWVRQAPGQGLEWMGAIDTSDSYTSYNQKFKGRVTMTRDTSTSTVYMELSSLRSEDTAVYYCARDYGNFYYYAMDYWGQGTLVTVSS
VL: QAVVTQEPSLTVSPGGTVTLTCRSSTGAVTTSNYANWFQQKPGQAPRTLIYGTNNRAPWTPARFSGSLLGGKAALTLSGAQPEDEAEYYCALWYSNHWVFGGGTKLTVL
modifications: McMMAF on the engineered cysteines 239iCys and S442C (EU numbering) of the heavy constant region
notes: Antibody-drug conjugate; human IgG1 Alya constant; also called 5Hg1/5Lg1-McMMAF
B5: 5Hg2-5Lg2 human Alya IgG1 conjugated to McMMAF (antibody, V domains shown)
VH: B4 VH with G44R, M70I, T76A, V79A
VL: B4 VL with S78L
modifications: McMMAF on the engineered cysteines 239iCys and S442C (EU numbering) of the heavy constant region
notes: Antibody-drug conjugate; human IgG1 Alya constant; also called 5Hg2/5Lg2-McMMAF
B6: C0120905 human Alya IgG1 conjugated to McMMAF (antibody, V domains shown)
VH: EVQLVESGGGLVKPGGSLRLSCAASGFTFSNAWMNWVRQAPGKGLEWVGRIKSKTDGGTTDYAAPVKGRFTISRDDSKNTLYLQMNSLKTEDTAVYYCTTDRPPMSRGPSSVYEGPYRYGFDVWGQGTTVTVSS
VL: NFMLTQPHSVSESPGKTVTISCTGSGGNIVDNFVQWHQQRPGSAPRTVIYEDDQRPSGVPDRFSASVDSSSNSGTLSISGLKTEDEADYYCQSYDGANRWVFGGGTKLTVL
modifications: McMMAF on the engineered cysteines 239iCys and S442C (EU numbering) of the heavy constant region
notes: Antibody-drug conjugate; human IgG1 Alya constant; also called C0120905-McMMAF
B7: C0120918 human Alya IgG1 conjugated to McMMAF (antibody, V domains shown)
VH: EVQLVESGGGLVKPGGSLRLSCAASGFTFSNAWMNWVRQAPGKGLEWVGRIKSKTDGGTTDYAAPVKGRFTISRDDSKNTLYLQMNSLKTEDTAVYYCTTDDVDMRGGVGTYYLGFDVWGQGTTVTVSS
VL: SYELTQPPSVSVSPGQTARITCSGDALPKQYAYWYQQKPGQAPVLVIYKDSERPSGIPERFSGSSSGTTVTLTISGVQAEDEADYYCQSADSSGTWVFGGGTKVTVL
modifications: McMMAF on the engineered cysteines 239iCys and S442C (EU numbering) of the heavy constant region
notes: Antibody-drug conjugate; human IgG1 Alya constant; also called C0120918-McMMAF
B8: C0120903 human Alya IgG1 conjugated to McMMAF (antibody, V domains shown)
VH: EVQLVQSGAEVKKPGSSMKVSCKASGGTFNSYTINWVRQAPGQGLEWVGGFIPIFGTADYAQKFHGRVAITADESMSTAYMELSSLRSEDTAVYYCARAPLGSEPFDYWGQGTMVTVSS
VL: SYVLTQPPSVSVAPGQTARITCGGNNIGSKSVHWYQQKPGQAPVLVVYDDSDRPSGIPERFSGSNSGNTATLTISRVEAGDEADYYCQVWDSSSDHLVFGGGTKLTVL
modifications: McMMAF on the engineered cysteines 239iCys and S442C (EU numbering) of the heavy constant region
notes: Antibody-drug conjugate; human IgG1 Alya constant; also called C0120903-McMMAF
B9: C0120914 human Alya IgG1 conjugated to McMMAF (antibody, V domains shown)
VH: QVQLQESGPGLVKPSETLSLTCTVSGGSVSSGRYDWSWIRQPPGKGLEWIGHIYYTGITDYNPSLRSRVTISADKPKNQFSLKLNSVTAADTAVYYCARGPFFDPWGQGTMVTVSS
VL: QSVLTQPPSVSVAPGQTASLTCGANNIGSKSVQWYQQKPGQAPVLVVYDGSDRPSGIPDRFSGSSSENTATLTISRVEAGDEADYYCQLWDSVTDRPVFGGGTKVTVL
modifications: McMMAF on the engineered cysteines 239iCys and S442C (EU numbering) of the heavy constant region
notes: Antibody-drug conjugate; human IgG1 Alya constant; also called C0120914-McMMAF

Assays:
[1] = target: T1, human SEMA4A expressed on cells …; experiment: cell-based or functional assay
[2] = target: T1, human SEMA4A expressed on cells …; experiment: cell-based or functional assay; remark: listed apart in the source
[3] = target: T1, human SEMA4A expressed on cells …; experiment: cell-based or functional assay; remark: listed apart in the source
[4] = target: T1, human SEMA4A expressed on cells …; experiment: flow cytometry on NCI-H929 cells endogenously expressing human SEMA4A, 10-point titration
Experimental: Binding of SEMA4A specific IgGs to membrane-bound SEMA4A was evaluated using flow cytometry in NCI-H929 cells that endogenously express human SEMA4A. Binding assays were performed by incubating the anti-SEMA4A antibodies with 200,000 cells for 3 hours at 4° C. followed by two washes with PBS, 1% (w/v) BSA (FACS buffer). A range of antibody concentrations were evaluated using a 10-point, 3-fold dilution series. Cells were then incubated with Alexa Fluor 647 conjugated AffiniPure Fab Fragment Goat Anti-Human IgG (H+L) (Jackson Immunoresearch Europe Limited, Ely, Cambridgeshire) diluted 1:100, at 4° C. for 1 hour, followed by two washes in FACS buffer. Cells were then stained with LIVE/DEAD™ Fixable Violet Dead Cell Stain (Life Technologies, L34955) for 30 minutes at 4° C., followed by two washes in FACS buffer. Cells were then fixed using BD Cell Fix (BD Biosciences, 340181). Fluorescence of live, single cells was measured using a Novocyte™ 3000 flow cytometer and Novoexpress software (Acea Biosciences, Inc, San Diego, CA). Data were analysed using FlowJo software (FlowJo, LLC, Ashland, OR). Mean fluorescence intensity values were plotted against antibody conjugate concentrations and KD values determined using Prism software (GraphPad Software Inc, La Jolla, CA).

[5] = target: T2, human SEMA4B expressed on expi293 cells; experiment: Mirrorball direct binding, dilution series on expi293 cells transiently transfected with human SEMA4B, anti-human Alexa Fluor 647
Experimental: To determine the specificity profile of each purified human Alya IgG1 conjugated to McMMAF, a dilution series was tested for binding to human SEMA4A, human SEMA4B and mock transfected cells (transient transfections set up in expi 293 cells.) The three assays employed methods described in section 2.3, using the appropriate cells and substituting the un-purified scFv periplasmic preparation with the human Alya IgG1 conjugated to McMMAF. Data was analysed as Count x median mean intensity (x FLU).

Row | Binder | Average KARPAS 25 IC50 [pM], cell kill [1] [pM] | Average MM1.S IC50 [pM], cell kill [1] [pM] | Average NCI-H929 IC50 [pM], cell kill [1] [pM] | Average MM1.S IC50 [pM], cell kill [2] [pM] | Average NCI-H929 IC50 [pM], cell kill [2] [pM] | EC50 (nM), Fab-pHast internalisation into NCI-H929 [3] [nM] | Fold-Change at 6 hours (10 nM), Fab-pHast internalisation [3] [fold] | Kd [4] [nM] | binding result [5]
1 | B1 | 126 | 5.95 | 7.53 | 5.8 | 5.1 | 0.25 | 160 | 3.18 | no binding (tested: log (M) -8 (1e-8 M))
2 | B2 | – | – | – | 4.7 | 3 | 4.1 | 116 | 9.67 | no binding (tested: log (M) -8 (1e-8 M))
3 | B3 | – | – | – | 10.9 | 18.1 | 8.29 | 53 | 40.5 | no binding (tested: log (M) -8 (1e-8 M))
4 | B4 | 625 | 35.8 | 100 | – | – | 0.54 | 121 | 1.46 | no binding (tested: log (M) -8 (1e-8 M))
5 | B5 | 181 | 10.7 | 34.3 | – | – | 0.59 | 103 | 2.46 | no binding (tested: log (M) -8 (1e-8 M))
6 | B6 | – | – | – | 63.5 | 90.8 | 3.72 | 91 | 34.3 | no binding (tested: log (M) -8 (1e-8 M))
7 | B7 | – | – | – | 13.2 | 55.8 | 3.62 | 79 | 1.6 | no binding (tested: log (M) -8 (1e-8 M))
8 | B8 | – | – | – | 8.8 | 7.1 | 0.98 | 118 | 9.88 | no binding (tested: log (M) -8 (1e-8 M))
9 | B9 | – | – | – | 1.1 | 2.5 | 3.29 | 112 | 9.04 | no binding (tested: log (M) -8 (1e-8 M))
